Experimental data published in patent US20100311820, “NUCLEIC ACID MODULATORS OF GLYCOPROTEIN VI” (Regado Biosciences, Inc, published 2010).

B1: E2-6 (RB431) (ssRNA)
RNA: GGGAGGACGAUGCGGAUAGACCGCGUCUGGCAUAAGCCUCCAAACACUCUGAUCCCAGACGACUCGCUGAGGAUCCGAGA
modifications: 2'-F C and U; 2'-OH A and G
B2: EF-22 (RB433) (ssRNA)
RNA: GGGAGGACGAUGCGGAUUCAACCCGCCUCUGGCAUAAGCCUACCCAUCGUGAUUGUCAGACGACUCGCUGAGGAUCCGAGA
modifications: 2'-F C and U; 2'-OH A and G
B3: EF-2 T1 (ssRNA)
RNA: GGGAGGACGAUGCGGUGCCAAAACACCCGUCUUGCAUAAGCCUCCUACGGCAACU
modifications: 2'-F C and U; 2'-OH A and G
B4: EF-31 (RB435) (ssRNA)
RNA: GGGAGGACGAUGCGGUCUAAGCUGCGUCUGGCAUAAGCCUCACCUACUCGAUACUCAGACGACUCGCUGAGGAUCCGAGA
modifications: 2'-F C and U; 2'-OH A and G
B5: EF-3 (RB429) (ssRNA)
RNA: GGGAGGACGAUGCGGAUCACACCGCGUCUUGCGUAAGCCUCCUACUAACGGAUCGCAGACGACUCGCUGAGGAUCCGAGA
modifications: 2'-F C and U; 2'-OH A and G

Biological target: T1, Glycoprotein VI extracellular domain (Gln21-Lys267) (Homo sapiens, UniProt Q9HCN6 SEQ:1-247)
T1 chain: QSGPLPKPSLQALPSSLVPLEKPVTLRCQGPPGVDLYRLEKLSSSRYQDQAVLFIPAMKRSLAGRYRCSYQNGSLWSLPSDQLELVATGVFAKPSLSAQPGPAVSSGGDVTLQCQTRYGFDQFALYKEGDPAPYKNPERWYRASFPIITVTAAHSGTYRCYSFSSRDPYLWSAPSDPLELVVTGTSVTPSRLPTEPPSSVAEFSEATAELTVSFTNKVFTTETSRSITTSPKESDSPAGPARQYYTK
Assay: filter
Details: tags: C-terminal His6; R&D Systems 3627-GP; label: 5'-32P
Experimental: Enrichment of the ligand libraries for GPVI was monitored in direct binding studies utilizing radiolabeled ligand RNA from respective rounds of SELEX and soluble GPVI. Binding studies were performed with trace P³² end-labeled RNA added to serial dilutions of GPVI in Binding Buffer F. To prepare radiolabeled RNAs for binding studies, one hundred picomoles of RNA was dephosphorylated with Bacterial Alkaline Phopshatase at 50° C. for 1 hour. The reaction was phenol:chloroform:isoamyl alcohol (25:24:1) extracted, chloroform: isoamyl:alcohol (24:1) extracted, and ethanol precipitated. Three pmoles of dephosphorylated RNA was end labeled with T4 Poylnucleotide Kinase with supplied buffer, and 20 μCi of γ-P³²-ATP and subsequently cleaned with a Biorad MicroBio Spin P-30 spin column. End-labeled RNA was diluted to a final concentration of 2000 cpm/μL and heat denatured at 65° C. for 5 minutes. RNA and GPVI dilutions were equilibrated at 37° C. prior to use. RNA (5 μL) was added to varying concentrations of GPVI (15 μL) at 37° C. and incubated together for 5 to 15 minutes. The complexed RNA/GPVI protein mixture was then loaded over a Protean BA85 nitrocellulose membrane, overlayed on a Genescreen Plus Nylon membrane, in a 96 well vacuum manifold system with washing. The membranes were exposed to a phosphorimager screen, scanned, and quantitated with a Molecular Dynamics Storm 840 Phosphorimager. The fraction bound was calculated by dividing the counts on the nitrocellulose by the total counts and adjusting for the background. Results for binding of enriched ligand libraries from round 10 E2 and round 10 EF of the SELEX as compared to the GPVI-naïve starting ligand library are shown in FIG. 3.

Binder	Kd
GGGAGGACGGCGGAUCACACCGCCUUGCGUAAGCCUCCC (ssRNA, 2'-F C and U; 2'-OH A and G) [EF-3 T4 (RB446)]	0.0155 µM
GGAGGACGGCGCGCCUGGCAUAAGCCUCC (ssRNA, RB551 with PS C7-G8) [RB554]	< 0.01 µM
GGGAGGACGAUGCGGUGCCAAAACACCCGUCUUGCAUAAGCCUCCU (ssRNA, 2'-F C and U; 2'-OH A and G) [EF-2 T2 (RB428)]	0.0155 µM
B1	0.0155 µM
GGGAGGACGAUGCGGUCUAAGCUGCGUCUGGCAUAAGCCUCCC (ssRNA, 2'-F C and U; 2'-OH A and G) [EF-31 T3 (RB440)]	0.0155 µM
GGAGGACGGCGCGCCUGGCAUAAGCCUCC (ssRNA, RB540 with PS G9-C10) [RB550]	< 0.01 µM
B2	0.0155 µM
B3	0.0155 µM
GGGAGGACGGCGCGCCUGGCAUAAGCCUCCC (ssRNA, RB490 pattern but 2'-OH G19 and 2'-F C26) [RB488]	< 0.01 µM
GGGAGGACGGCGCGCCUGGCGUAAGCCUCCC (ssRNA, RB531 pattern with 2'-OMe G21) [RB532]	0.0155 µM
GGGAGGACGGCGCGCCUGGCAUAAGCCUCCC (ssRNA, RB490 with 2'-OMe G6,A7) [RB518]	0.0155 µM
GGGAGGACGGCGCGCCUGGCAUAAGCCUCCC (ssRNA, RB490 with 2'-OMe A7) [RB492]	0.0155 µM
GGGAGGACGGCGCGCCUGGCAUAAGCCUCCC (ssRNA, RB526 with 2'-OMe G18) [RB531]	0.0155 µM
GGGAGGACGACGCGUCUGGCAUAAGCCUCCC (ssRNA, RB526 pattern with 2'-OH A10 and 2'-F U15) [RB535]	0.0155 µM
GGGAGGACGGCGCGCCUUGCGUAAGCCUCCC (ssRNA, RB526 pattern with 2'-F U18 and 2'-OMe G21) [RB534]	0.0155 µM
GGGAGGACGGCGCGCCUGGCAUAAGCCUCCC (ssRNA, RB490 with 2'-OMe C15) [RB500]	< 0.01 µM
GGGAGGACGGCGCGCCUGGCAUAAGCCUCCC (ssRNA, RB490 with 2'-OMe A21) [RB503]	< 0.01 µM
GGGAGGACGGCGCGCCUGGCAUAAGCCUCCC (ssRNA, RB490 with 2'-OMe G6, 2'-deoxy A7) [RB519]	< 0.01 µM
GGGAGGACGGCGCGCCUGGCAUAAGCCUCCC (ssRNA, RB490 with 2'-OMe C8) [RB493]	0.0155 µM
GGGAGGACGGCGCGCCUGGCAUAAGCCUCCC (ssRNA, RB490 with 2'-deoxy C8) [RB496]	0.0155 µM
GGGAGGACGGCGCGCCUGGCAUAAGCCUCCC (ssRNA, RB490 with 2'-OMe G6) [RB491]	< 0.01 µM
GGGAGGACGGCGCGCCUGGCAUAAGCCUCCC (ssRNA, RB490 with 2'-OMe A23) [RB505]	< 0.01 µM
GGGAGGACGGCGCGCCUGGCAUAAGCCUCCC (ssRNA, RB524 with 2'-deoxy A7,G9) [RB526]	0.0155 µM
GGGAGGACGGCGCGCCUGGCAUAAGCCUCCC (ssRNA, RB490 with 2'-OMe G25) [RB502]	< 0.01 µM
GGGAGGACGGCGCGCCUGGCAUAAGCCUCCC (ssRNA, RB520 with 2'-F C15) [RB524]	0.0155 µM
GGGAGGACGGCGCGCCUGGCAUAAGCCUCCC (ssRNA, RB490 with 2'-OMe G10) [RB499]	0.0155 µM

Binder	Kd
GGGAGGACGGCGCGCCUGGCAUAAGCCUCCC (ssRNA, RB490 with 2'-OMe A24) [RB506]	< 0.01 µM
GGGAGGACGGCGCGCCUGGCAUAAGCCUCCC (ssRNA, RB490 with 2'-OMe U22) [RB504]	0.0155 µM
GGGAGGACGGCGCGCCUGGCAUAAGCCUCCC (ssRNA, RB490 with 2'-OMe G9) [RB497]	< 0.01 µM
GGGAGGACGGCGCGCCUGGCAUAAGCCUCCC (ssRNA, RB490 with 2'-deoxy A7) [RB495]	< 0.01 µM
GGGAGGACGGCGCGCCUUGCAUAAGCCUCCC (ssRNA, RB526 pattern with 2'-F U18) [RB533]	0.0155 µM
GGGAGGACGAUGCGGUCUAAGCUGCGUCUGGCAUAAGCCUCACC (ssRNA, 2'-F C and U; 2'-OH A and G) [EF-31 T2 (RB439)]	0.0155 µM
GGAGGACGGCGCGCCUGGCAUAAGCCUCC (ssRNA, RB540 with PS G5-A6) [RB546]	0.0155 µM
GGGAGGACGGCGGUCUAAGCUGCCUGGCAUAAGCCUCCC (ssRNA, 2'-F C and U; 2'-OH A and G) [EF-31 T5 (RB442)]	0.0155 µM
GGGAGGACGGCGUCUAAGCGCCUGGCAUAAGCCUCCC (ssRNA, 2'-F C and U; 2'-OH A and G) [EF-31 T6 (RB443)]	0.0155 µM
GGGAGGACGGCGCUAACGCCUGGCAUAAGCCUCCC (ssRNA, 2'-F C and U; 2'-OH A and G) [EF-31 T7 (RB444)]	0.0155 µM
GGGAGGACGGCGCUAACGCCUGGCAUAAGCCUCCC (ssRNA, RB448 with 2'-OMe G22) [RB460]	0.0155 µM
GGGAGGACGGCGCUAACGCCUGGCAUAAGCCUCCC (ssRNA, RB448 with 2'-OMe C11,G12,C17,G18) [RB455]	0.0155 µM
GGGAGGACGGCGCUAACGCCUGGCAUAAGCCUCCC (ssRNA, RB448 with 2'-OMe at most of Stem 1 (G1,G2,G3,A4 and 3' partners)) [RB452]	0.0155 µM
GGGAGGACGGCGAUCACACGCCUUGCGUAAGCCUCCC (ssRNA, 2'-F C and U; 2'-OH A and G) [EF-3 T5 (RB447)]	0.0155 µM
GGGAGGACGAUGCGGAUCACACCGCGUCUUGCGUAAGCCUCCU (ssRNA, 2'-F C and U; 2'-OH A and G) [EF-3 T2 (RB430)]	0.0155 µM
GGGAGGACGAUGCGGAUUCAACCCGCCUCUGGCAUAAGCCUACCC (ssRNA, 2'-F C and U; 2'-OH A and G) [EF-22 T1 (RB434)]	0.0155 µM
B4	0.0155 µM
GGGAGGACGAUGCGGUCUAAGCUGCGUCUGGCAUAAGCCUCACCUACU (ssRNA, 2'-F C and U; 2'-OH A and G) [EF-31 T1 (RB436)]	0.0155 µM
B5	0.0155 µM
GGAGGACGGCGCGCCUGGCAUAAGCCUCC (ssRNA, RB537 with 2'-OMe G17) [RB538]	0.0155 µM
GGGAGGACGAUGCGGAUAGACCGCGUCUGGCAUAAGCCUCC (ssRNA, 2'-F C and U; 2'-OH A and G) [E2-6 T1 (RB432)]	0.0155 µM
GGAGGACGGCGCGCCUGGCAUAAGCCUCC (ssRNA, RB551 with PS G8-G9) [RB555]	< 0.01 µM
GGAGGACGGCGCGCCUGGCAUAAGCCUCC (ssRNA, RB551 with PS G9-C10) [RB556]	< 0.01 µM
GGAGGACGGCGCGCCUGGCAUAAGCCUCC (ssRNA, RB540 with PS C7-G8 and G8-G9) [RB561]	< 0.01 µM
GGAGGACGGCGCGCCUGGCAUAAGCCUCC (ssRNA, RB540 with PS A6-C7) [RB547]	0.0155 µM
